Measurements published in patent US20070099268A1, “Chimeric HCN channels” (priority 2005, published 2007).
Values joined by “and” are separate entries in the source; they are usually repeats but may differ in a detail not shown here. Equal values may be shown once.

Experiments:
[1] = tested on: neonatal rat ventricular myocytes; experiment: Voltage clamp of HCN2 or HCN4 plasmid (lipofectin) expressed in neonatal rat ventricular myocytes; type: cell-based
Text: cDNAs encoding mouse HCN2 (mHCN2, GenBank AJ225122) or HCN4 (mHCN4, GenBank deposit in progress) were subcloned into the pCI mammalian expression vector (Promega, Madison, Wis.). The resulting plasmids (pCI-mHCN2 or pCI-mHCN4) were used for neonatal rat ventricular myocyte transfection, as indicated. A separate plasmid (pEGFP-CI; Clontech, Palo Alto, Calif.) expressing the gene of enhanced green fluorescent protein (EGFP) as a visual marker for successful DNA transfer was included in all transfection experiments. For transfection, 2 μg of pCI-mHCN and […] of pEGFP-CI were first incubated in 200 μl of SFM containing 10 μl of lipofectin (Gibco Life Technologies, Rockville, Md.) at room temperature for 45 min. The mixture was then added to a 35-mm petri dish containing […] suspended in 0.8 ml of SFM. After overnight incubation at 37° C. in a CO2 incubator, the medium containing the plasmids and lipofectin was discarded and the dish was refilled with 2 ml of fresh SFM.
The whole-cell voltage clamp technique was employed to record native If or expressed IHCN2 or IHCN4. Action potentials were recorded in current clamp mode, again using a whole cell patch electrode. Experiments were carried out on cells superfused at 35° C. Extracellular solution contained (mM): NaCl, 140; NaOH, 2.3; MgCl2, 1; KCl, 5.4; CaCl2, 1.0; HEPES, 5; glucose, 10; pH 7.4. To record from myocytes expressing native currents (If), myocytes expressing HCN2 (IHCN2) or HCN4 (IHCN4), [K^+]0 was increased to 10 mM, and MnCl2 (2 mM) and BaCl2 (4 mM) added to the superfusate to eliminate calcium and inward rectifier (IK1) currents. In some experiments CsCl (4 mM) was used extracellularly to identify the pacemaker current as the Cs-sensitive current. The patch pipette solution included (mM): aspartic acid, 130; KOH, 146; NaCl, 10; CaCl2, 2; EGTA-KOH, 5; Mg-ATP, 2; HEPES-KOH, 10, pH 7.2. Where indicated, 10 μM cAMP was included in the pipette solution. A fast solution changing apparatus expedited the experimental protocols. The pipette resistance was typically 1-3 M. An Axopatch-200B amplifier and pClampS software (Axon Instruments) were used for acquisition and data analysis. […]
(§1) The activation relation of the native or expressed current can be determined from the steady-state I-V relation. In this case, the reversal potential (Vf) was separately determined from the fully activated I-V relation (Accili et al., 1991) and used to generate the activation relation (y=I/(gmax*(V−Vf)), where gmax is the maximal conductance). […] Tail currents were measured at a negative voltage (−125 mV) to avoid contamination by transient outward and other currents at less negative voltages. […]

[2] = tested on: oocyte; settings: cited from earlier work
[3] = tested on: mammalian expression systems; settings: cited from earlier work
[4] = tested on: cell-free patches from Xenopus oocytes; settings: cited from earlier work
[5] = tested on: adult ventricular myocytes; experiment: Voltage clamp (tail currents) of HCN2 expressed with AdHCN2 in adult ventricular myocytes; type: cell-based, rat
Method: Freshly isolated adult ventricular myocytes were prepared using the procedure described by Kuznetsov et al. (1995). This entailed a Langendorff perfusion of collagenase, followed by trimming away of the atria. The remaining tissue was minced and dissociated in additional collagenase solution. The isolated myocytes were suspended in a SFM then plated on 9×22 mm glass coverslips at 0.5-1×10^3 cells/mm^2. Two to three hours later, after the myocytes had adhered to the coverslips, the adenoviral infection procedure was begun (see below).
(§2) For increased expression efficiency, an adenoviral construct for mHCN2 was prepared. Gene delivery and transfer procedures followed previously published methods (Ng et al., 2000; He et al., 1998). A DNA fragment (between EcoRI and XbaI restriction sites) that included mHCN2 DNA downstream of the CMV promoter was obtained from plasmid pTR-mHCN2 (Santoro and Tibbs, 1999) and subcloned into the shuttle vector pDC516 (AdMax™; Microbix Biosystems, Toronto, Canada). The resulting pDC516-mHCN2 shuttle plasmid was co-transfected with a 35.5 kb El-deleted Ad genomic plasmid pBHGΔE1,3FLP (AdMax™) into El-complementing HEK293 cells.
AdHCN2 infection of rat ventricular myocytes was carried out 2-3 h after the isolated cells were plated onto coverslips. The culture medium was removed from the dishes (35-mm) and the inoculum of 0.2-0.3 ml/dish was added containing AdHCN2. The value of m.o.i. (multiplicity of infection—the ratio of viral units to cells) was 15-100. The inoculum was dispersed over the cells every 20 min by gently tilting the dishes so that the cells were evenly exposed to the viral particles. The dishes were kept at 37° C. in a CO2 incubator during the adsorption period of 2 h, then the inoculum was discarded and the dishes were washed and refilled with the appropriate culture medium. The dishes remained in the incubator for 24-48 h before electrophysiological experiments were conducted.
The whole-cell voltage clamp technique was employed to record native If or expressed IHCN2 or IHCN4. Action potentials were recorded in current clamp mode, again using a whole cell patch electrode. Experiments were carried out on cells superfused at 35° C. Extracellular solution contained (mM): NaCl, 140; NaOH, 2.3; MgCl2, 1; KCl, 5.4; CaCl2, 1.0; HEPES, 5; glucose, 10; pH 7.4. To record from myocytes expressing native currents (If), myocytes expressing HCN2 (IHCN2) or HCN4 (IHCN4), [K^+]0 was increased to 10 mM, and MnCl2 (2 mM) and BaCl2 (4 mM) added to the superfusate to eliminate calcium and inward rectifier (IK1) currents. In some experiments CsCl (4 mM) was used extracellularly to identify the pacemaker current as the Cs-sensitive current. […]
The activation relation of the native or expressed current can be determined from the steady-state I-V relation. […]

[6] = tested on: neonatal ventricular myocytes; experiment: Voltage clamp (tail currents) of HCN2 expressed with AdHCN2 in neonatal ventricular myocytes; type: cell-based, rat
Method: as §2, with “cells. […]” for “cells.”
The whole-cell voltage clamp technique was employed to record native If or expressed IHCN2 or IHCN4. Action potentials were recorded in current clamp mode, again using a whole cell patch electrode. […]
as §1

B1: mHCN2: mouse HCN2 hyperpolarization-activated, cyclic nucleotide-gated channel, wild type (GenBank AJ225122) (protein)
chain: MDARGGGGRPGDSPGTTPAPGPPPPPPPPAPPQPQPPPAPPPNPTTPSHPESADEPGPRARLCSRDSACTPGAAKGGANGECGRGEPQCSPEGPARGPKVSFSCRGAASGPSAAEEAGSEEAGPAGEPRGSQASFLQRQFGALLQPGVNKFSLRMFGSQKAVEREQERVKSAGAWIIHPYSDFRFYWDFTMLLFMVGNLIIIPVGITFFKDETTAPWIVFNVVSDTFFLMDLVLNFRTGIVIEDNTEIILDPEKIKKKYLRTWFVVDFVSSIPVDYIFLIVEKGIDSEVYKTARALRIVRFTKILSLLRLLRLSRLIRYIHQWEEIFHMTYDLASAVMRICNLISMMLLLCHWDGCLQFLVPMLQDFPSDCWVSINNMVNHSWSELYSFALFKAMSHMLCIGYGRQAPESMTDIWLTMLSMIVGATCYAMFIGHATALIQSLDSSRRQYQEKYKQVEQYMSFHKLPADFRQKIHDYYEHRYQGKMFDEDSILGELNGPLREEIVNFNCRKLVASMPLFANADPNFVTAMLTKLKFEVFQPGDYIIREGTIGKKMYFIQHGVVSVLTKGNKEMKLSDGSYFGEICLLTRGRRTASVRADTYCRLYSLSVDNFNEVLEEYPMMRRAFETVAIDRLDRIGKKNSILLHKVQHDLSSGVFNNQENAIIQEIVKYDREMVQQAELGQRVGLFPPPPPPQVTSAIATLQQAVAMSFCPQVARPLVGPLALGSPRLVRRAPPGPLPPAASPGPPAASPPAAPSSPRAPRTSPYGVPGSPATRVGPALPARRLSRASRPLSASQPSLPHGVPAPSPAASARPASSSTPRLGPAPTARTAAPSPDRRDSASPGAASGLDPLDSARSRLSSNL
slope factor (K) ([1]; lipofectin transfection): 7.7±0.7 mV | difference in midpoint of activation of HCN2 relative to HCN4 ([1]; neonatal myocytes): 8.5 mV and 9 mV | midpoint of activation [2]: −78 mV | midpoint of activation reported in other mammalian expression studies [3]: −83 to −97 mV | shift of activation curve to more positive potentials by cAMP ([4]; binding of cAMP to the CNBD): 17 mV | steady-state activation curve more hyperpolarized than that of HCN1 [4]: 20 mV | shift of voltage dependence by saturating cAMP, adult ([5]; 10 μM cAMP in the pipette): 14 mV | slope factor (K), adult myocytes ([5]; AdHCN2): 6.5±0.5 mV | negative shift of voltage dependence of activation/deactivation kinetics in the adult ([5]; adult vs neonatal): 21 mV | shift in the activation relation (midpoints), adult vs neonatal myocytes ([5]; negative in the adult): 18 mV | shift of voltage dependence by saturating cAMP, neonate ([6]; 10 μM cAMP in the pipette): 17 mV | slope factor (K), neonatal myocytes ([6]; AdHCN2): 9.8±0.6 mV
